Patent US20100092561A1 (published 2010)
Starred links: 1 amine or outer side, 2 acyl side, 3 side chain; linkers in the order of their positions; H or OH if unused. Non-standard residues stand in square brackets, D forms with d. No end group written: not given here. βMeF(S) = S-β-methyl-L-phenylalanine, (2S,3S)-β-methylphenylalanine, C[C@@H](c1ccccc1)[C@H](N[*:1])C(=O)[*:2]; Phe(3R-Me) = C[C@H](c1ccccc1)[C@H](N)C(=O)O

Molecular target: NK1 receptor (rabbit)
Assay: cell-based or functional assay

| biological activity relative to SP (rabbit iris sphincter contraction) | concentration at half maximal contraction (EC50), rabbit iris sphincter muscle | Binder |
| --- | --- | --- |
| 10 fold reduction | 10 nM | RPKPQQ[Phe(3R-Me)][Phe(3R-Me)]GLM (not fully specified (C-terminus); ends and bridges not checked) [7R,8R-(βMeF)2SP] |
| 10 fold reduction | – | RPKPQQF[βMeF(S)]GLM (not fully specified (C-terminus); ends and bridges not checked) [8S-(βMeF)SP] |
| 4 fold enhancement | 0.15 nM | RPKPQQF[Phe(3R-Me)]GLM (not fully specified (C-terminus); ends and bridges not checked) [8R-(βMeF)SP] |
